How the values were obtained:
[1] = molecular target: Scribble PDZ1 (Homo sapiens) (UniProt Q14160); experiment: holdup assay; details: cited from earlier work
[2] = molecular target: biotinylated RSK1 725-735 peptide, phosphorylated at Ser732 (position -3) (human) (UniProt Q15418); experiment: holdup assay
[3] = molecular target: biotinylated RSK1 725-735 peptide, unphosphorylated (human) (UniProt Q15418); experiment: holdup assay
[4] = molecular target: biotinylated RSK1 725-735 peptide, unphosphorylated (human) (UniProt Q15418); experiment: SPR
[5] = molecular target: biotinylated RSK1 725-735 peptide, phosphorylated at Ser732 (position -3) (human) (UniProt Q15418); experiment: SPR
[6] = molecular target: MBP-fused PDZ domain of SYNJ2BP (human) (UniProt P57105); experiment: fluorescence polarisation
[7] = molecular target: MBP-fused PDZ domain of ARHGEF12 (human) (UniProt Q9NZN5); experiment: fluorescence polarisation
[8] = molecular target: MBP-fused PDZ domain 1 of PDZRN3 (human) (UniProt Q9UPQ7); experiment: fluorescence polarisation
[9] = molecular target: MBP-fused PDZ domain of GOPC (human) (UniProt Q9HD26); experiment: fluorescence polarisation

Sequence of HPV16 E6 PBM (P03126 whole entry, looked up): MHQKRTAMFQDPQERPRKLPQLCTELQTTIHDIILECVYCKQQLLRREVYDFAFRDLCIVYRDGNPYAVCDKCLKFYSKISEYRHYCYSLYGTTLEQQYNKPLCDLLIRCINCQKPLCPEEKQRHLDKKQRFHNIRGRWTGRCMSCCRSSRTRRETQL
Sequence of MBP-fused PDZ domain 1 of PDZRN3 (human) (Q9UPQ7 249-339): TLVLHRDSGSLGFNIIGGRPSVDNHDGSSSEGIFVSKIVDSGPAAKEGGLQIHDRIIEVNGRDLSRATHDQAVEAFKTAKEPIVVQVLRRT
Sequence of MBP-fused PDZ domain of SYNJ2BP (human) (P57105 13-100): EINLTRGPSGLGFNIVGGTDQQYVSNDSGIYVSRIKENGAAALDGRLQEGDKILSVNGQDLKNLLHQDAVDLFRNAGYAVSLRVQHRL
Sequence of MBP-fused PDZ domain of ARHGEF12 (human) (Q9NZN5 72-151): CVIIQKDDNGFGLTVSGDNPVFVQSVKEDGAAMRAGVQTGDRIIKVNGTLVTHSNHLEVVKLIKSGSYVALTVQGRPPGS
Sequence of Scribble PDZ1 (Homo sapiens) (Q14160 725-818): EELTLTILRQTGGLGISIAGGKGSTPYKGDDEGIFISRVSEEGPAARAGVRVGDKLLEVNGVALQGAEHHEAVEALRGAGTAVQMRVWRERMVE

Row | Substance | Kd [2] | BI [3] | Kd [3] | BI [2] | further results
1 | HPV16 E6 PBM (from UniProt P03126) | – | – | – | – | Kd [1]: 7.5 µM
2 | MBP-fused PDZ domain 1 of NHERF3 (from UniProt Q5T2W1 9-90) (domain or fragment) | > 100 µM | 0.41 | 22.1 µM | – | –
3 | MBP-fused PDZ domain 2 of GRID2IP (from UniProt A4D2P6 279-356) (domain or fragment) | > 100 µM | 0.67 | 7.1 µM | – | Kd [4]: 3.96 µM
4 | MBP-fused PDZ domain of ARHGEF12 (from UniProt Q9NZN5 72-151) (domain or fragment) | > 100 µM | 0.77 | 4.2 µM | – | Kd [4]: 2.79 µM
5 | MBP-fused PDZ domain of MAST1 (from UniProt Q9Y2H9 967-1055) (domain or fragment) | > 100 µM | 0.57 | 11.1 µM | – | –
6 | MBP-fused second PDZ domain of MAGI1 (from UniProt Q96QZ7 472-554) (domain or fragment) | 92.9 µM | 0.43 | 20.3 µM | 0.15 | –
7 | PDZ domain 2 of DLG4 (from UniProt P78352 160-246) (domain or fragment) | – | 0.11 | > 100 µM | 0.25 | –
8 | PDZ domain 2 of NHERF2 (from UniProt Q15599 150-230) (domain or fragment) | > 100 µM | – | 64.8 µM | – | –
9 | PDZ domain 3 of DFNB31 (from UniProt Q9P202 816-899) (domain or fragment) | > 100 µM | 0.23 | 53.8 µM | – | –
10 | PDZ domain of ARHGEF11 (from UniProt O15085 47-126) (domain or fragment) | > 100 µM | 0.28 | 40.8 µM | – | –
11 | PDZ domain of GORASP1 (domain or fragment) | – | – | > 100 µM | – | –
12 | PDZ domain of GRASP (from UniProt Q7Z6J2 101-190) (domain or fragment) | > 100 µM | 0.29 | 38.8 µM | – | –
13 | PDZ domain of SHANK3 (from UniProt Q9BYB0 646-740) (domain or fragment) | > 100 µM | 0.27 | – | – | –
14 | RSK1 683-735 peptide, unphosphorylated (from UniProt Q15418 683-735) | – | – | – | – | Kd [6]: > 100 µM; Kd [7]: 6.6 µM; Kd [8]: > 100 µM; Kd [9]: 27 µM

The remaining substances from weak to strong by Kd [2], led by results:

Row | Kd [2] | BI [3] | Kd [3] | BI [2] | Substance | further results
15 | 92.9 µM | – | – | 0.15 | MBP-fused PDZ domain 3 of PDZD7 (from UniProt Q9H5P4 862-934) (domain or fragment) | Kd [4]: 6.2 µM
16 | 60.8 µM | – | > 100 µM | 0.21 | PDZ domain of PTPN3 (from UniProt P26045 510-582) (domain or fragment) | –
17 | 60.8 µM | – | > 100 µM | 0.21 | PDZ domain of SHROOM2 (from UniProt Q13796 26-108) (domain or fragment) | –
18 | 57.2 µM | – | > 100 µM | 0.22 | PDZ domain of LIMK2 (from UniProt P53671 152-239) (domain or fragment) | –
19 | 53.8 µM | 0.42 | 21.2 µM | 0.23 | MBP-fused PDZ domain 2 of MAGI2 (from UniProt Q86UL8 426-510) (domain or fragment) | –
20 | 53.8 µM | 0.74 | – | 0.23 | MBP-fused PDZ domain of MAST2 (from UniProt Q6P0Q8 1104-1192) (domain or fragment) | Kd [4]: 7.02 µM
21 | 50.8 µM | – | > 100 µM | 0.24 | PDZ domain 1 of GRID2IP (from UniProt A4D2P6 3-84) (domain or fragment) | –
22 | 50.8 µM | – | > 100 µM | 0.24 | PDZ domain 3 of LNX1 (from UniProt Q8TBB1 507-593) (domain or fragment) | –
23 | 40.8 µM | – | > 100 µM | 0.28 | PDZ domain of LAP2 (from UniProt Q96RT1 1321-1410) (domain or fragment) | –
24 | 31.8 µM | – | > 100 µM | 0.33 | PDZ domain of PPP1R9A (from UniProt Q9ULJ8 504-592) (domain or fragment) | –
25 | 27.7 µM | 0.44 | 19.4 µM | 0.36 | MBP-fused PDZ domain of HTRA1 (from UniProt Q92743 365-467) (domain or fragment) | –
26 | 18.6 µM | 0.26 | 45.4 µM | 0.45 | MBP-fused PDZ domain 1 of PDZRN3 (from UniProt Q9UPQ7 249-339) (domain or fragment) | –
27 | 18.6 µM | 0.22 | 57.2 µM | 0.45 | MBP-fused PDZ domain of SNTB1 (from UniProt Q13884 112-195) (domain or fragment) | Kd [5]: 48 µM
28 | 13.8 µM | 0.41 | 22.1 µM | 0.52 | MBP-fused PDZ domain of SNTG2 (from UniProt Q9NY99 73-156) (domain or fragment) | Kd [5]: 37 µM
29 | 13.2 µM | 0.31 | 35.1 µM | 0.53 | MBP-fused PDZ domain of SNTA1 (from UniProt Q13424 87-170) (domain or fragment) | –
30 | 12.6 µM | 0.26 | 45.4 µM | 0.54 | MBP-fused PDZ domain of SYNJ2BP (from UniProt P57105 13-100) (domain or fragment) | Kd [5]: 25 µM

From publication PMC6424611
